Reference: paper PMC11727070, “Structure of the WIPI3/ATG16L1 Complex Reveals the Molecular Basis for the Recruitment of the ATG12~ATG5-ATG16L1 Complex by WIPI3” (Cells, 2024)

Each binder was assayed against T1, GST-tagged WIPI3Δ (human, UniProt Q5MNZ6 8-344, without residues 264–281) (assay: SEC; competition: a pre-formed complex incubated with an increasing molar ratio of the competitor, then SEC; fractions analysed by SDS-PAGE with Coomassie staining). Details: both partners purified.
T1 construct: WIPI3, human, residues 8–344 with residues 264–281 removed; also called GST-WIPI3Δ; source: E. coli BL21 (DE3), purified (Ni-NTA, Superdex 200); not shown: GST, N-terminal, kept
T1 sequence (Q5MNZ6 other isoform, or with tags, fused parts or gaps without residues 264–281 | without residues 264–281 | mutant): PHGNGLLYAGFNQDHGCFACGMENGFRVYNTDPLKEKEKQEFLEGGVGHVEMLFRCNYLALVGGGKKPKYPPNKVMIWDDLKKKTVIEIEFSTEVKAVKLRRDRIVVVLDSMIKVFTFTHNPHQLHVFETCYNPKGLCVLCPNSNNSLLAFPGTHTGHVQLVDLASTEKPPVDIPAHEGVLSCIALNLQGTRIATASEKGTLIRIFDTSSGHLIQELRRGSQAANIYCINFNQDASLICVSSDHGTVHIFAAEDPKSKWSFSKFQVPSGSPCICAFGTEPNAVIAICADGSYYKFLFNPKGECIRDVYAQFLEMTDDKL

Row | binding result | Binder
1 | binds | ATG16L1(78–206) (domain or fragment, human, UniProt Q676U5 78-206, looked up, Legends name it without Trx; source: E. coli BL21 (DE3), purified (Ni-NTA, Superdex 200)) NDNQLQEMAQLRIKHQEELTELHKKRGELAQLVIDLNNQMQRKDREMQMNEAKIAECLQTISDLETECLDLRTKLCDLERANQTLKDEYDALQITFTALEGKLRKTTEENQELVTRWMAEKAQEANRLN

The binders below were run against T2, SUMO-tagged WIPI3^Δ (human WIPI3 residues 8–344 without residues 264–281) (human, UniProt Q5MNZ6 8-344, without residues 264–281) (assay: SEC; purified proteins alone and mixed, Superdex 200 Increase 10/300 GL or Superdex 75 10/300 GL on an AKTA FPLC; mixture profile compared with the theoretical sum; fractions checked by SDS-PAGE). Details: both partners purified.
T2 construct: WIPI3, human, residues 8–344 with residues 264–281 removed; the WIPI3(75–80) region is retained; also called SUMO-WIPI3^Δ; loop-truncated WIPI3; source: E. coli BL21 (DE3), purified (Ni-NTA, Superdex 200); not shown: SUMO, N-terminal, kept
T2 sequence (Q5MNZ6 other isoform, or with tags, fused parts or gaps without residues 264–281 | without residues 264–281 | mutant): as the sequence (Q5MNZ6 other isoform, or with tags, fused parts or gaps without residues 264–281 | without residues 264–281 | mutant) above

Row | Binder | binding result
2 | ATG16L1(78–247) (domain or fragment, human, UniProt Q676U5 78-247, looked up, Legends name it without Trx (while ATG2A is named Trx-ATG2A), so the tag may have been cleaved; also called central region of ATG16L1; source: E. coli BL21 (DE3), purified (Ni-NTA, Superdex 200)) NDNQLQEMAQLRIKHQEELTELHKKRGELAQLVIDLNNQMQRKDREMQMNEAKIAECLQTISDLETECLDLRTKLCDLERANQTLKDEYDALQITFTALEGKLRKTTEENQELVTRWMAEKAQEANRLNAENEKDSRRRQARLQKELAEAAKEPLPVEQDDDIEVIVDET | binds
3 | ATG16L1(78–206) (domain or fragment, human, UniProt Q676U5 78-206, looked up, Legends name it without Trx; source: E. coli BL21 (DE3), purified (Ni-NTA, Superdex 200)) NDNQLQEMAQLRIKHQEELTELHKKRGELAQLVIDLNNQMQRKDREMQMNEAKIAECLQTISDLETECLDLRTKLCDLERANQTLKDEYDALQITFTALEGKLRKTTEENQELVTRWMAEKAQEANRLN | binds
4 | ATG16L1(124–188) (domain or fragment, human, UniProt Q676U5 124-188, looked up, Parallel coiled-coil dimer in the crystal; also called ATG16L1 coiled-coil; source: E. coli BL21 (DE3), purified (Ni-NTA, Superdex 200)) MQMNEAKIAECLQTISDLETECLDLRTKLCDLERANQTLKDEYDALQITFTALEGKLRKTTEENQ | binds

Other lines, results leading:

Row | binding result | Binder
5 | binds | ATG16L1(78–197) (domain or fragment, human, UniProt Q676U5 78-197, looked up, source: E. coli BL21 (DE3), purified (Ni-NTA, Superdex 200)) NDNQLQEMAQLRIKHQEELTELHKKRGELAQLVIDLNNQMQRKDREMQMNEAKIAECLQTISDLETECLDLRTKLCDLERANQTLKDEYDALQITFTALEGKLRKTTEENQELVTRWMAE
6 | binds | ATG16L1(124–197) (domain or fragment, human, UniProt Q676U5 124-197, looked up, source: E. coli BL21 (DE3), purified (Ni-NTA, Superdex 200)) MQMNEAKIAECLQTISDLETECLDLRTKLCDLERANQTLKDEYDALQITFTALEGKLRKTTEENQELVTRWMAE
